{"source": "patent US20240002495A1", "about": "(MITSUBISHI TANABE PHARMA, published 2024)", "target": "T1, recombinant human ST2 Fc chimera (ALX-201-367-C050, Enzo Life Science) (human, UniProt Q01638 19-328)", "T1 construct": "bought; also called human IL-33 receptor protein; human IL-33 receptor (ST2)", "T1 sequence (looked up)": "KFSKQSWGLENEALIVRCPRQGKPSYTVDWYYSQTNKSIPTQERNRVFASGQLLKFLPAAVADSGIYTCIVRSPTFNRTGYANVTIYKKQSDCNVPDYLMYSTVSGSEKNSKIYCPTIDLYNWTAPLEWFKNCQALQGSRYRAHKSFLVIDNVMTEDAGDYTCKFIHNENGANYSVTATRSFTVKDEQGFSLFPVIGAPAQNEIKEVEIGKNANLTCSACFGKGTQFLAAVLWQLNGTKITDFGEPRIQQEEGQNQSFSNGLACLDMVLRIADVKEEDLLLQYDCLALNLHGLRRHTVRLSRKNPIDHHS", "test": "SPR (ProteOn), hIL-33 on chip, ST2 Fc chimera as analyte", "excerpt": "Each peptide was N-terminally biotinylated, and was immobilized as ligand onto a NeutrAvidin sensor chip of a surface plasmon resonance (SPR) system (ProteOn XPR36, available from Bio-Rad Laboratories, Inc.). […] The resulting protein (hIL-33) as a ligand was immobilized onto the SPR sensor chip. Each test antibody, the human IL-33 receptor protein (recombinant human ST2 Fc chimera) (ALX-201-367-C050, available from Enzo Life Science, Inc.), or buffer (0.05% Tween20/PBS) alone was then loaded as an analyte onto the sensor chip containing the ligand immobilized thereon (antibody concentration: […]; flow rate: 100 μl/min), to allow them to bind to the ligand. After washing, the amount of analyte (amount of antibody) bound to the ligand on the sensor chip was measured as RU value.", "data": [{"binder": "mature human IL-33 (residues 112 to 270) N-terminally linked with the Avitag sequence, biotinylated (ligand, not shown: small tags and cut ends, biotin on the AviTag sequence (biotin ligase reaction), also called hIL-33) SITGISPITEYLASLSTYNDQSITFALEDESYEIYVEDLKKDEKKDKVLLSYYESQHPSNESGDGVDGKMLMVTLSPTKDFWLHANNKEHSVELHKCEKPLPDQAFFVLHNMHSNCVSFECKTDPGVFIGVKDNHLALIKVDSSENLCTENILFKLSET", "values": [{"measurement": "binding result", "value": "binds"}]}]}
